From paper PMC12700559, “Structural basis for simvastatin-induced skeletal muscle weakness associated with type 1 ryanodine receptor T4709M mutation” (The Journal of Clinical Investigation, 2025)

Molecular target: type 1 ryanodine receptor (RyR1), endogenous channel from mouse skeletal muscle (mouse (endogenous in mouse skeletal muscle)) (UniProt E9PZQ0)
Assay: cryo-EM structure; endogenous RyR1 purified from mouse skeletal muscle, ~15 uM protomer, in CHAPS/DOPC buffer; with 5 mM EGTA only or with 10 mM ATP, 5 mM caffeine, 30 uM free Ca2+, with or without 10 mM simvastatin lactone; C4 symmetry imposed

type 1 ryanodine receptor (RyR1), endogenous channel from mouse skeletal muscle, E9PZQ0 1-5035 (natural protein), sequence (E9PZQ0 whole entry): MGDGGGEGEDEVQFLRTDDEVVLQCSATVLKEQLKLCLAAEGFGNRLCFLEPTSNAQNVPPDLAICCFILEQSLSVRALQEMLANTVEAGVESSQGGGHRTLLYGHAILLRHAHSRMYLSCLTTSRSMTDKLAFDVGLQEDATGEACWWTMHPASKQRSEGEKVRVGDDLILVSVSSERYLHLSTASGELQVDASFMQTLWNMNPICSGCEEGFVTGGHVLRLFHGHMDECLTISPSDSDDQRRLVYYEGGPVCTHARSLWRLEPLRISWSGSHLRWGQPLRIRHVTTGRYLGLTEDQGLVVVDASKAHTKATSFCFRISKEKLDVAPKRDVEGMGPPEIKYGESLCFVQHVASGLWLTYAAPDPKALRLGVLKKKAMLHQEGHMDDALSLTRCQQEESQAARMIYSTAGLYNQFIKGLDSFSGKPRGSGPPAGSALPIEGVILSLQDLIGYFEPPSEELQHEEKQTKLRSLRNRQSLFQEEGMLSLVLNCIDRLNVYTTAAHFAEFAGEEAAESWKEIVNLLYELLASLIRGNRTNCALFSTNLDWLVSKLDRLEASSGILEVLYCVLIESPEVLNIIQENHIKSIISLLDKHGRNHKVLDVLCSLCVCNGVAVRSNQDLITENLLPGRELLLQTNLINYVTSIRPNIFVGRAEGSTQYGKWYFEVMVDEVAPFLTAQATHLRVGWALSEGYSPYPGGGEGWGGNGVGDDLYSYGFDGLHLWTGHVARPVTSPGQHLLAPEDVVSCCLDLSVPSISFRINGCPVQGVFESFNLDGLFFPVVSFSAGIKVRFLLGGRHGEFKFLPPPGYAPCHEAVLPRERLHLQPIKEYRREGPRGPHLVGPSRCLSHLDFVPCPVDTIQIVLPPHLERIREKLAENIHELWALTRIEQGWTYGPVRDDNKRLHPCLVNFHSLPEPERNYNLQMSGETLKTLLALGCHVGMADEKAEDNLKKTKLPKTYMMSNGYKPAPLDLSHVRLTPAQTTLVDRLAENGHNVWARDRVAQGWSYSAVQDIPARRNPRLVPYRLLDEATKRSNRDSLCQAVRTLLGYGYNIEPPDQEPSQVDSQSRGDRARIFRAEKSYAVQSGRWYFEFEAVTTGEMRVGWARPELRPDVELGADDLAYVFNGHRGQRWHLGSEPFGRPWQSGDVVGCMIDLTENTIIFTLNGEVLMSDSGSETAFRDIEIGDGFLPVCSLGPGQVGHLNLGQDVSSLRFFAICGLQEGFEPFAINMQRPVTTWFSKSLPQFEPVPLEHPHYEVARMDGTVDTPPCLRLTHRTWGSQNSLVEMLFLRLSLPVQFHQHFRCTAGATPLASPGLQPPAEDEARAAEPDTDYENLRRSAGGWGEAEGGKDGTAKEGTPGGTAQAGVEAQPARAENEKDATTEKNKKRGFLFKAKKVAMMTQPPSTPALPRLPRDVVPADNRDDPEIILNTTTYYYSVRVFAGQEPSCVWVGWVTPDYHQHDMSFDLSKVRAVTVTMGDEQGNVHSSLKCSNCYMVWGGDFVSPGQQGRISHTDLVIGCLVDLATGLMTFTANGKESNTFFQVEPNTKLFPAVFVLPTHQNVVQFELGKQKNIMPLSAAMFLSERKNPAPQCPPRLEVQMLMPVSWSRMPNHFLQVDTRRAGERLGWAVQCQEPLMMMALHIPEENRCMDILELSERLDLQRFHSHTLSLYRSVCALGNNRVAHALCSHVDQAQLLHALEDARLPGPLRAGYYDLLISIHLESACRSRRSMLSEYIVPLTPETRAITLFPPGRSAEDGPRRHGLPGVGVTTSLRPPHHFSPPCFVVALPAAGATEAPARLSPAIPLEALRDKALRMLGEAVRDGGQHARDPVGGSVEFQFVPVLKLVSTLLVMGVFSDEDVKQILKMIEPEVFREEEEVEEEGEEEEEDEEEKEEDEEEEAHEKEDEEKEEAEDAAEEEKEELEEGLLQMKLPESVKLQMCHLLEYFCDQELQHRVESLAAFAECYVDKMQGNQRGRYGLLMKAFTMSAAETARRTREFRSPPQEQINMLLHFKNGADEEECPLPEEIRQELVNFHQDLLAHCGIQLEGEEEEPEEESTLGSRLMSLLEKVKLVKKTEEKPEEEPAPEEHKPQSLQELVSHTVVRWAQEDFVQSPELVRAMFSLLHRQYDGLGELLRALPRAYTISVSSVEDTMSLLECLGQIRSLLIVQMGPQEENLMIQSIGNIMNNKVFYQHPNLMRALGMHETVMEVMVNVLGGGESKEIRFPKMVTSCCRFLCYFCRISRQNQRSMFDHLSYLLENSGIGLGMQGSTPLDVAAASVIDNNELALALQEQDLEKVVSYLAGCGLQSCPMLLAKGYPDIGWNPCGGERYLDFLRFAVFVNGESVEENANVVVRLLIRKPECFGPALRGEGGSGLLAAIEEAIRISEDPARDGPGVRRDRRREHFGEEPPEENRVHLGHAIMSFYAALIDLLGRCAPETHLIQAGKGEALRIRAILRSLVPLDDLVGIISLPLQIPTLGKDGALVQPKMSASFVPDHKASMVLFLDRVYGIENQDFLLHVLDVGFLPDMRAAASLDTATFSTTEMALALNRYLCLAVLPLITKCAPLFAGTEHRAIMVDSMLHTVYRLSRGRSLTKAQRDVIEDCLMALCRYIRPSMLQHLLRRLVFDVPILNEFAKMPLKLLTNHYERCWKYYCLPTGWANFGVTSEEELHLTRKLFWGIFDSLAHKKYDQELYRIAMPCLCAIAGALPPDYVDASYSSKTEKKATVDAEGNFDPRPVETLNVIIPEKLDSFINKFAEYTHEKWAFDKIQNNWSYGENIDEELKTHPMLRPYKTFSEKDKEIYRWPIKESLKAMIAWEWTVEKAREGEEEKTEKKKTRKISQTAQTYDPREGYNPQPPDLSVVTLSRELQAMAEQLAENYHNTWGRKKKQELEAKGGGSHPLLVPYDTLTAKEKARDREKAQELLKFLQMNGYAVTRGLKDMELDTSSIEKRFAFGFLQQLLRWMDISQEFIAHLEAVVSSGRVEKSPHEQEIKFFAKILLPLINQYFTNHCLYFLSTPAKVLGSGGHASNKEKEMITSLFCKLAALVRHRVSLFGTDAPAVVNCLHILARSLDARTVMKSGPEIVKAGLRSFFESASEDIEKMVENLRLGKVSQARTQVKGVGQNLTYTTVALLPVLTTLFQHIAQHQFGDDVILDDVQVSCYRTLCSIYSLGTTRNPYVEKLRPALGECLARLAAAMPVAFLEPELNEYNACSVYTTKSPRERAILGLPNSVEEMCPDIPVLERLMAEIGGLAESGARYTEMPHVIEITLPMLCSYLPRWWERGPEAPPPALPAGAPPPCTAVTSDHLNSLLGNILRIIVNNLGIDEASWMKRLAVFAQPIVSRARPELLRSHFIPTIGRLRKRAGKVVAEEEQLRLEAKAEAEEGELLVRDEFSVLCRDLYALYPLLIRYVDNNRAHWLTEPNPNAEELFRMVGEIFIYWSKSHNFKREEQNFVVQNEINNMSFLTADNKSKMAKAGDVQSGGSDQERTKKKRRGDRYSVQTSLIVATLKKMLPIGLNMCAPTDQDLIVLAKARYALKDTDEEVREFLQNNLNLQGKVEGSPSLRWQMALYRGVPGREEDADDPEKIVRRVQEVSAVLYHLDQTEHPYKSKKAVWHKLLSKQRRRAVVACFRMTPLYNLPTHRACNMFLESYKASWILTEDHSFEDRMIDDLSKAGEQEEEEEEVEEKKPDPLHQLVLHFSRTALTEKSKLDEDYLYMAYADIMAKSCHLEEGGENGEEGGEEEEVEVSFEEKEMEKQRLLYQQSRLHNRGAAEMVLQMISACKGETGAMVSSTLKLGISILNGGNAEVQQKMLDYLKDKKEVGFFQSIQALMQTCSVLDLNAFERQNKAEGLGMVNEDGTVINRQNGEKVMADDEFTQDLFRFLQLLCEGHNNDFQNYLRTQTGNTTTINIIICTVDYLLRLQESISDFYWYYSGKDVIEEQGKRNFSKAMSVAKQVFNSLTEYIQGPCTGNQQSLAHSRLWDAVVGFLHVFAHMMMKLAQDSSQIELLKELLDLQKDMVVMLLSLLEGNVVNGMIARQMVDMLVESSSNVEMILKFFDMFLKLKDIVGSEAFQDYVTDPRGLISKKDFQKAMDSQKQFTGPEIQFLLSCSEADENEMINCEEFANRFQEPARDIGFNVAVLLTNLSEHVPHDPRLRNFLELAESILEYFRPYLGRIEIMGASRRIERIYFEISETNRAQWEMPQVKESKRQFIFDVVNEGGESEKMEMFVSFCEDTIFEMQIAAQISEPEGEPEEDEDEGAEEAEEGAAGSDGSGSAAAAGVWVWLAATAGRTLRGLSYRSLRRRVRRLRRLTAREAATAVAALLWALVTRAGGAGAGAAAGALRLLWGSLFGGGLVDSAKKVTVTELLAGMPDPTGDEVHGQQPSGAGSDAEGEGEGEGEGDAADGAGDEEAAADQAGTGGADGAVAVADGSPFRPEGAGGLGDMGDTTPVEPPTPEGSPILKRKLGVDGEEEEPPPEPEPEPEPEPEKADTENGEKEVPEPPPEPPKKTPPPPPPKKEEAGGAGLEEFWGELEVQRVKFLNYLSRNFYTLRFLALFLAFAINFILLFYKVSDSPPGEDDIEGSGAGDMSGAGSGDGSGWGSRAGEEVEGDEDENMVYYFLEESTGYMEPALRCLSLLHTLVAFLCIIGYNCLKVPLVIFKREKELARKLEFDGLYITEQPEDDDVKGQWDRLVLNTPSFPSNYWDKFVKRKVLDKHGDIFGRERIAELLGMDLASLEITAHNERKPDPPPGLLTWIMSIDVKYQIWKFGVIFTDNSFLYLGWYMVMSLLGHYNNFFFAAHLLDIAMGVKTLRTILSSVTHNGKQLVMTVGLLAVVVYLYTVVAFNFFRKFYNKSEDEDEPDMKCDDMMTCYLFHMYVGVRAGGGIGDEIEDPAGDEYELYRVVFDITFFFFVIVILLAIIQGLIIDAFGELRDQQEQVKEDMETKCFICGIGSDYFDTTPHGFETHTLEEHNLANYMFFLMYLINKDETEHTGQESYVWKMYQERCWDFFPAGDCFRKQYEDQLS

stoichiometry N: 4
Substance: type 1 ryanodine receptor (RyR1), endogenous channel from mouse skeletal muscle, E9PZQ0 1-5035 (natural protein)
